Values joined by “and” are separate entries in the source; they are usually repeats but may differ in a detail not shown here. Equal values may be shown once.
B1: Chitosanase, P33665 (parent)
chain: MHSQHRTARIALAVVLTAIPASLATAGVGYASTQASTAVKAGAGLDDPHKKEIAMELVSSAENSSLDWKAQYKYIEDIGDGRGYTGGIIGFCSGTGDMLELVQHYTDLEPGNILAKYLPALKKVNGSASHSGLGTPFTKDWATAAKDTVFQQAQNDERDRVYFDPAVSQAKADGLRALGQFAYYDAIVMHGPGNDPTSFGGIRKTAMKKARTPAQGGDETTYLNAFLDARKAAMLTEAAHDDTSRVDTEQRVFLKAGNLDLNPPLKWKTYGDPYVINS

Variants of: B1
Conditions: Streptomyces sp. (strain N174), pH 4.5, Thermal, Fluorescence, reversible: No, structure 1CHK, whole UniProt chain shown

Row | Variant | change of melting temperature, mutant - wild type (higher = more stable) (Sodium acetate 100 mM) | Tm (Sodium acetate 50 mM) [°C] | change of melting temperature, mutant - wild type (higher = more stable) (Sodium acetate 50 mM) [°C]
1 | MHSQHRTARIALAVVLTAIPASLATAGVGYASTQASTAVKAGAGLDDPHKKEIAMELVSSAENSSLDWKAQYKYIEDIGDGRGYTGGIIGFCSGTGDMLELVQHYTDLEPGNILAKYLPALKKVNGSASHSGLGTPFTKDWATAAKDTVFQQAQNDERDRVYFDPAVSQAKADGLRALGQFAYYDAIVMHGPGNDPTSFGGIRRTAMKKARTPAQGGDETTYLNAFLDARKAAMLTEAAHDDTSRVDTEQRVFLKAGNLDLNPPLKWKTYGDPYVINS [K204R] | -1 °C and -0.2 °C and -0.9 °C |  | 
2 | MHSQHRTARIALAVVLTAIPASLATAGVGYASTQASTAVKAGAGLDDPHKKEIAMELVSSAENSSLDWKAQYKYIEDIGDGRGYTGGIIGFCSGTGDMLELVQHYTDLEPGNILAKYLPALKKVNGSASHSGLGTPFTKDWATLAKDTVFQQAQNDERDRVYFDPAVSQAKADGLRALGQFAYYDAIVMHGPGNDPTSFGGIRKTAMKKARTPAQGGDETTYLNAFLDARKAAMLTEAAHDDTSRVDTEQRVFLKAGNLDLNPPLKWKTYGDPYVINS [A144L] | -5.3 °C and -6.2 °C and -7 °C | 48 | -5.5
